# Source: article PMC9349299
# How the values were obtained:
# [1] = target: AvmM (Streptomyces sp. TP-A0867); experiment: crystal structure; sitting drop, 22 °C; protein 10 mg/mL in 50 mM NaCl, 20 mM Tris pH 8.0; reservoir 0.2 M magnesium acetate, 0.1 M sodium cacodylate pH 6.5, 20% PEG 8000; apo AvmM at 2.09 Å and AvmM with product 2 at 2.5 Å
# [2] = target: AvmM (Streptomyces sp. TP-A0867); experiment: SEC; HiLoad 16/600 Superdex 200 pg, 50 mM NaCl, 20 mM Tris pH 8.0, 4 °C, 1 mL/min; calibrated with cytochrome c, ovalbumin, aldolase, ferritin
substance,measurement,setting,value
AvmM (enzyme),stoichiometry N,[1],3
same,stoichiometry N,[2],3
